# Data reported in article PMC8257255, “Soluble Fas ligand drives autoantibody-induced arthritis by binding to DR5/TRAIL-R2” (eLife, 2021).
# Target: T1, Recombinant Human TRAIL R2/TNFRSF10B Fc Chimera Protein (human, UniProt O14763 56-210)
# T1 construct: TNFRSF10B (DR5, TRAIL R2), human, fused to Fc; also called rhDR5–Fc; DR5–Fc; source: bought: R&D Systems (631-T2)
# Assay: SPR; Biacore T100; recombinant DR5 (R&D 631-T2-100) coupled to a CM5 chip in 10 mM sodium acetate pH 5.5; recombinant FasL or TRAIL passed over at 30 μL/min for 120 s; empty flow cell subtracted; equilibrium affinity measurements
# Settings: both partners purified
binder,measurement,value
"recombinant human soluble Fas ligand (His-tagged) (ligand, UniProt P48023 130-281, looked up, Fas ligand (TNFSF6), human, soluble recombinant form; also called sFasL; rhFasL; source: bought: R&D Systems (126-FL)) QIGHPSPPPEKKELRKVAHLTGKSNSRSMPLEWEDTYGIVLLSGVKYKKGGLVINETGLYFVYSKVYFRGQSCNNLPLSHKVYMRNSKYPQDLVMMEGKMMSYCTTGQMWARSSYLGAVFNLTSADHLYVNVSELSLVNFEESQTFFGLYKL",Kd,1.23 pM
